Source: patent US20030054488A1 (published 2003)

Tests used:
GPpep1 Ala9 = biological target: T1, GPpep1 Ala9
T1 chain: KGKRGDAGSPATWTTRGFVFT

GPpep1 = biological target: T2, GPpep1
T2 chain: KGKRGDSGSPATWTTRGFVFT

GPΔIII derived peptide = biological target: T3, GPΔIII derived peptide
T3 chain: QRAHGQDLDALFVKVLRSP

[1] = biological target: T4, Human recombinant GP antigen (rGP) produced in 293 cells, Q01955
T4 chain: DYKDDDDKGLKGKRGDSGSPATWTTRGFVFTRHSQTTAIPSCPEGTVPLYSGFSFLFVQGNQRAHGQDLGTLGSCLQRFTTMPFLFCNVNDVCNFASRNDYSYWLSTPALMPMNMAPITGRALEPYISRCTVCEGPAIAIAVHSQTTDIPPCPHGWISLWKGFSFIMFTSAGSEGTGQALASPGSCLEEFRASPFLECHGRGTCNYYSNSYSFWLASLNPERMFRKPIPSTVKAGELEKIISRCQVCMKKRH

[2] = biological target: T5, native human GP antigen (alpha3(IV)NC1 domain), Q01955
T5 chain: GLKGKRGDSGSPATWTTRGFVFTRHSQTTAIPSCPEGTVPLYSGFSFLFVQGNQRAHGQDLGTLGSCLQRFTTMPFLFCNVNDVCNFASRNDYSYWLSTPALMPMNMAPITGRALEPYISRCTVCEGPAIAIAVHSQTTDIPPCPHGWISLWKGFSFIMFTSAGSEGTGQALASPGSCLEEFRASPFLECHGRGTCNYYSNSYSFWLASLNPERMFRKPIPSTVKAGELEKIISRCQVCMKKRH

[3] = biological target: T6, rMBP Ser to Ala mutant in position 57, P02686
T6 chain: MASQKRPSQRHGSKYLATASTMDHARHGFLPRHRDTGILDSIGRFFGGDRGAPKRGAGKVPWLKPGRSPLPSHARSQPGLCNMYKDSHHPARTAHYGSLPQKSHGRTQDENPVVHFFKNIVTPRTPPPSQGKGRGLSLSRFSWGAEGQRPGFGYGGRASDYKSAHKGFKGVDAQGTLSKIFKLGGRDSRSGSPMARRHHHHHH

[4] = biological target: T7, rMBP Ser to Ala mutant in position 8, P02686
T7 chain: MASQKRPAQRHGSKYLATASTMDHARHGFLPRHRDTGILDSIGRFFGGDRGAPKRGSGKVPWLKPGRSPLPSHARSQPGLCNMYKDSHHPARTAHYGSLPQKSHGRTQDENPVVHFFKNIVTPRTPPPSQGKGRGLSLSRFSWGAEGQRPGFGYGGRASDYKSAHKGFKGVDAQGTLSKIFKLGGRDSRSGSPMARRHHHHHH

[5] = biological target: T8, rMBPΔII Ser to Ala mutant in position 57
T8 chain: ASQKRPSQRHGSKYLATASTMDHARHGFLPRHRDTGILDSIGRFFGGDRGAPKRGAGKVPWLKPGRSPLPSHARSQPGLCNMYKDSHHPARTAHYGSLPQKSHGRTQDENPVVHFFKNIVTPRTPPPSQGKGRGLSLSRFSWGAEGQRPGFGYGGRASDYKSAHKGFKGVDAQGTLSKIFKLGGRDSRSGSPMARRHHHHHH

[6] = biological target: T9, rMBPΔII Ser to Ala mutant in position 8
T9 chain: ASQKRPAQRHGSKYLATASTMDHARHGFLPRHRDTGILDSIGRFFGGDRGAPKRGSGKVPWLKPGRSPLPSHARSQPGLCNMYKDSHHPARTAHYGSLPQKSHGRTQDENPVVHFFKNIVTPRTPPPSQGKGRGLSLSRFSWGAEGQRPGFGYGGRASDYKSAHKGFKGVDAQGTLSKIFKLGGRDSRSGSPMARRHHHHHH

[7] = biological target: T10, recombinant 18.5 kDa myelin basic protein lacking exon II (rMBPΔII)
T10 chain: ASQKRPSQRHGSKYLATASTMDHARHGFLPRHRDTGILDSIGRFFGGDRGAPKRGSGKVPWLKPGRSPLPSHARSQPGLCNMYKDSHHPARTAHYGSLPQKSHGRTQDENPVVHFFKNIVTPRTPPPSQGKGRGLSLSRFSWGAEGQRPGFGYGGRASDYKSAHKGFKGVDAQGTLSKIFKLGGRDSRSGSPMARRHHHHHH

[8] = biological target: T11, recombinant 21 kDa myelin basic protein (rMBP), P02686
T11 chain: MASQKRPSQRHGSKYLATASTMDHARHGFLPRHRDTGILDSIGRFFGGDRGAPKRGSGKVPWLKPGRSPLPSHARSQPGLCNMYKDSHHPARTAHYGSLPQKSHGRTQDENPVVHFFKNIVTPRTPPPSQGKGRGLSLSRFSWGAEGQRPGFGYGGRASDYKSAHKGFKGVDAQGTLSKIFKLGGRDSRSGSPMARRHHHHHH

[9] = biological target: the molecule itself; assay: gel filtration HPLC and analytical ultracentrifugation (peak II 220±10 kDa, likely trimers)
Method: FIG. 11. rGPBP and rGPBPΔ26 form very active high molecular weight aggregates. About 300 μg of rGPBP (A) or rGPBPΔ26 (B) were subjected to gel filtration HPLC as described under Material and Methods. Vertical arrowheads and numbers respectively indicate the elution profile and molecular mass (kDa) of the molecular weight standards used. Larger aggregates eluted in the void volume (I), and the bulk of the material present in the samples eluted in the fractionation range of the column as a second peak between the 669 and 158 kDa markers (II). Fifteen microliters of the indicated minute fractions were subjected to SDS-PAGE and Coomasie blue staining. Five microliters of the same fractions were in vitro phosphorylated as described in Materials and Methods, and the reaction stopped by boiling in SDS sample buffer. […]
Gel-filtration HPLC. […] The material was eluted from the column at 0.5 ml/min, monitored at 220 nm and minute fractions collected.
rGPBP and rGPBP-26 exist as very active high molecular weight aggregates. Gel filtration analysis of affinity-purified rGPBP or rGPBPΔ26 yielded two chromatographic peaks (I and II), both displaying higher MW than expected for the individual molecular species, as determined by SDS-PAGE studies (89 kDa and 84 kDa, respectively ) (FIG. 11). […] ATP, and analyzed by immunoblot and autoradiography.

[10] = biological target: T12, HeLa1 beta-galactosidase-derived fusion protein containing the N-terminal 150 residues of GPBP (human, UniProt Q5R6M6 1-150 (Pongo abelii entry)); assay: lambda-gt11 expression library filters overlaid with GPpep1, detected with monoclonal antibody
T12 construct: Expressed from the lambda-gt11 clone on library filters and as a lysogen in E. coli Y1089; also called HeLa1 lambda-gt11 fusion protein; not shown: beta-galactosidase part encoded by the lambda-gt11 vector
T12 sequence: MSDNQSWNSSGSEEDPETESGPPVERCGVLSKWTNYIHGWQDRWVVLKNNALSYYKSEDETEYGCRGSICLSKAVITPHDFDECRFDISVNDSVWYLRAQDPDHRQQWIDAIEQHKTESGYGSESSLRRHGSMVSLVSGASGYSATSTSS
Method: Isolation and characterization of cDNA clones encoding human GPBP—Several human λ-gt11 cDNA expression libraries (eye, fetal and adult lung, kidney and HeLa S3, from CLONTECH) were probed for cDNAs encoding proteins interacting with GPpep1. Nitrocellulose filters (Millipore) prepared following standard immunoscreening procedures were blocked and incubated with 1-10 nmoles per ml of GPpep1 at 37° C. Specifically bound GPpep1 was detected using M3/1A monoclonal antibodies (7). A single clone was identified in the HeLa-derived library (HeLa1). Specificity of fusion protein binding was confirmed by similar binding to recombinant eukaryotic human GP antigen. The EcoRI cDNA insert of HeLa1 (0.5-kb) was used to further screen the same library and to isolate overlapping cDNAs. The largest cDNA (2.4-kb) containing the entire cDNA of HeLa1 (n4′) was fully sequenced.

B1: FLAG-tagged recombinant GPBP (rGPBP) (protein)
chain: DYKDDDDKMSDNQSWNSSGSEEDPETESGPPVERCGVLSKWTNYIHGWQDRWVVLKNNALSYYKSEDETEYGCRGSICLSKAVITPHDFDECRFDISVNDSVWYLRAQDPDHRQQWIDAIEQHKTESGYGSESSLRRHGSMVSLVSGASGYSATSTSSFKKGHSLREKLAEMETFRDILCRQVDTLQKYFDACADAVSKDELQRDKVVEDDEDDFPTTRSDGDFLHSTNGNKEKLFPHVTPKGINGIDFKGEAITFKATTAGILATLSHCIELMVKREDSWQKRLDKETEKKRRTEEAYKNAMTELKKKSHFGGPDYEEGPNSLINEEEFFDAVEAALDRQDKIEEQSQSEKVRLHWPTSLPSGDAFSSVGTHRFVQKPYSRSSSMSSIDLVSASDDVHRFSSQVEEMVQNHMTYSLQDVGGDANWQLVVEEGEMKVYRREVEENGIVLDPLKATHAVKGVTGHEVCNYFWNVDVRNDWETTIENFHVVETLADNAIIIYQTHKRVWPASQRDVLYLSVIRKIPALTENDPETWIVCNFSVDHDSAPLNNRCVRAKINVAMICQTLVSPPEGNQEISRDNILCKITYVANVNPGGWAPASVLRAVAKREYPKFLKRFTSYVQEKTAGKPILF
For B1, which “^32P incorporation, in vitro phosphorylation” value (GPpep1 Ala9) is on record?
The value was “The lower ^32P incorporation displayed by GPpep1 Ala^9 when compared with GPpep1”.

And the “^32P incorporation, in vitro phosphorylation” value (GPpep1)?
Its value is “Affinity-purified rGPBP phosphorylates all human-derived material to a different extent”.

And the “GPBP autophosphorylation, 5 nmol peptide, Boc chemistry” value (GPΔIII derived peptide)?
Its value is “Boc-based synthetic peptides positively influenced GPBP autophosphorylation”.

What about the “GPBP autophosphorylation, 5 nmol peptide, Fmoc chemistry” value (GPΔIII derived peptide) of the same binder?
Its value is “Fmoc-based inhibited GPBP autophosphorylation”.

And the “^32P incorporation, in vitro phosphorylation” value [1]?
Its value is “Affinity-purified rGPBP phosphorylates all human-derived material to a different extent”.

And the “^32P incorporation, in vitro phosphorylation” value (native bovine GP antigen)?
The value was “no appreciable ^32P-incorporation was observed in the bovine-derived substrate”.

What about the “^32P incorporation, in vitro phosphorylation” value [2] of the same binder?
Its value is “Affinity-purified rGPBP phosphorylates all human-derived material to a different extent”.

What about the “^32P incorporation, in situ phosphorylation of blotted substrate” value (“^32P incorporation … of blotted substrate” for short) [3] of the same binder?
Its value is “recombinant Ser to Ala mutants displayed no significant reduction in ^32P incorporation”.

And the “^32P incorporation … of blotted substrate” value [4]?
The value was “recombinant Ser to Ala mutants displayed no significant reduction in ^32P incorporation”.

And the “^32P incorporation … of blotted substrate” value [5]?
The value was “recombinant Ser to Ala mutants displayed no significant reduction in ^32P incorporation”.

What about the “^32P incorporation … of blotted substrate” value [6] of the same binder?
The value was “recombinant Ser to Ala mutants displayed no significant reduction in ^32P incorporation”.

What about the “^32P incorporation … of blotted substrate” value [7] of the same binder?
Its value is “little phosphorylation of MBPΔII was observed”.

And the “^32P incorporation … of blotted substrate” value [8]?
Its value is “GPBP preferentially phosphorylated MBP”.

B2: FLAG-tagged recombinant GPBP (rGPBP) (enzyme)
chain: DYKDDDDKMSDNQSWNSSGSEEDPETESGPPVERCGVLSKWTNYIHGWQDRWVVLKNNALSYYKSEDETEYGCRGSICLSKAVITPHDFDECRFDISVNDSVWYLRAQDPDHRQQWIDAIEQHKTESGYGSESSLRRHGSMVSLVSGASGYSATSTSSFKKGHSLREKLAEMETFRDILCRQVDTLQKYFDACADAVSKDELQRDKVVEDDEDDFPTTRSDGDFLHSTNGNKEKLFPHVTPKGINGIDFKGEAITFKATTAGILATLSHCIELMVKREDSWQKRLDKETEKKRRTEEAYKNAMTELKKKSHFGGPDYEEGPNSLINEEEFFDAVEAALDRQDKIEEQSQSEKVRLHWPTSLPSGDAFSSVGTHRFVQKPYSRSSSMSSIDLVSASDDVHRFSSQVEEMVQNHMTYSLQDVGGDANWQLVVEEGEMKVYRREVEENGIVLDPLKATHAVKGVTGHEVCNYFWNVDVRNDWETTIENFHVVETLADNAIIIYQTHKRVWPASQRDVLYLSVIRKIPALTENDPETWIVCNFSVDHDSAPLNNRCVRAKINVAMICQTLVSPPEGNQEISRDNILCKITYVANVNPGGWAPASVLRAVAKREYPKFLKRFTSYVQEKTAGKPILF
modifications: contains phosphoserine, phosphothreonine and phosphotyrosine; positions not given
notes: Expressed in Pichia pastoris (pHIL-FLAG-n4') or in 293 cells (pc-FLAG-n4'); ON-GPBP-54m also encodes an initiation Met and a few residues before the FLAG; also called yeast rGPBP; FLAG-n4'
Does B2 bind [9]?
Result: binds

B3: GPpep1 (peptide)
peptide: KGKRGDSGSPATWTTRGFVFT
notes: also called 21-residue peptide representing residues 3-23 of the human GP antigen
Does B3 bind [10]?
Result: binds
